Assay results taken from the array DNA melting data of Ke et al..

Assay: melting temperature; melt of duplexes
Settings: sodium 0.0675 M; strand 1 µM
For “CGACGTGCTACATGTGCTG+CAGCACATGAGGCACGTCG ((((((((..(((((((((+)))))))))..))))))))”, the Tm was 55.8 °C. Work on “CGACGTGCACGATGTGCTG+CAGCACATGGTGCACGTCG ((((((((((.((((((((+)))))))).))))))))))” yielded a Tm of 55.8 °C. Substance “CGACGTGCAAGATGTGCTG+CAGCACATCGGGCACGTCG ((((((((..(((((((((+)))))))))..))))))))” has a Tm of 57 °C. “CGACGTGCTACATGTGCTG+CAGCACATCTCGCACGTCG ((((((((.(.((((((((+)))))))).).))))))))” showed a Tm of 47.2 °C. “CGACGTGCGGCATGTGCTG+CAGCACATGCTGCACGTCG ((((((((.((((((((((+)))))))))).))))))))” gave a Tm of 62.7 °C. Work on “CGACGTGCGAAATGTGCTG+CAGCACATTTAGCACGTCG ((((((((.((((((((((+)))))))))).))))))))” yielded a Tm of 57.9 °C. For “CGACGTGCGTGATGTGCTG+CAGCACATGCCGCACGTCG (((((((((..((((((((+))))))))..)))))))))”, the Tm was 54.7 °C. With “CGACGTGCTTTATGTGCTG+CAGCACATGGTGCACGTCG ((((((((...((((((((+))))))))...))))))))” the Tm was 45.6 °C. In the case of “CGACGTGCTATATGTGCTG+CAGCACATTTCGCACGTCG ((((((((.(.((((((((+)))))))).).))))))))”, the Tm is reported as 49 °C. Substance “CGACGTGCGTTATGTGCTG+CAGCACATAGGGCACGTCG ((((((((..(((((((((+)))))))))..))))))))” has a Tm of 52.5 °C. In the case of “CGACGTGCTTCATGTGCTG+CAGCACATCAGGCACGTCG ((((((((.(.((((((((+)))))))).).))))))))”, the Tm is reported as 49.1 °C. “CGACGTGCATGATGTGCTG+CAGCACATTATGCACGTCG ((((((((((.((((((((+)))))))).))))))))))” showed a Tm of 57.3 °C. With “CGACGTGCGTGATGTGCTG+CAGCACATTTGGCACGTCG ((((((((...((((((((+))))))))...))))))))” the Tm was 50.4 °C. For “CGACGTGCATGATGTGCTG+CAGCACATCCGGCACGTCG ((((((((..(((((((((+)))))))))..))))))))”, the Tm was 54.4 °C. In the case of “CGACGTGCGCCATGTGCTG+CAGCACATGGGGCACGTCG ((((((((.((((((((((+)))))))))).))))))))”, the Tm is reported as 63.2 °C. “CGACGTGCGGAATGTGCTG+CAGCACATTCAGCACGTCG ((((((((.((((((((((+)))))))))).))))))))” gave a Tm of 60.2 °C. For “CGACGTGCTGGATGTGCTG+CAGCACATGCTGCACGTCG ((((((((.(.((((((((+)))))))).).))))))))”, the Tm was 54.8 °C. For “CGACGTGCGCAATGTGCTG+CAGCACATGACGCACGTCG (((((((((..((((((((+))))))))..)))))))))”, the Tm was 54.4 °C. For “CGACGTGCACTATGTGCTG+CAGCACATGAAGCACGTCG ((((((((...((((((((+))))))))...))))))))”, the Tm was 45.9 °C. For “CGACGTGCGATATGTGCTG+CAGCACATTAGGCACGTCG ((((((((...((((((((+))))))))...))))))))”, the Tm was 50.8 °C. For “CGACGTGCCTTATGTGCTG+CAGCACATAGGGCACGTCG (((((((((.(((((((((+))))))))).)))))))))”, the Tm was 57.7 °C. In the case of “CGACGTGCACCATGTGCTG+CAGCACATTGAGCACGTCG ((((((((.(.((((((((+)))))))).).))))))))”, the Tm is reported as 47.2 °C. In the case of “CGACGTGCTCAATGTGCTG+CAGCACATCTGGCACGTCG ((((((((...((((((((+))))))))...))))))))”, the Tm is reported as 50.3 °C. “CGACGTGCAACATGTGCTG+CAGCACATGGTGCACGTCG (((((((((.(((((((((+))))))))).)))))))))” showed a Tm of 60 °C. Work on “CGACGTGCATCATGTGCTG+CAGCACATAACGCACGTCG ((((((((.(.((((((((+)))))))).).))))))))” yielded a Tm of 48.3 °C. Substance “CGACGTGCCTGATGTGCTG+CAGCACATAATGCACGTCG ((((((((.(.((((((((+)))))))).).))))))))” has a Tm of 49.9 °C. Substance “CGACGTGCTAAATGTGCTG+CAGCACATTCCGCACGTCG ((((((((..(((((((((+)))))))))..))))))))” has a Tm of 50.1 °C. In the case of “CGACGTGCCAAATGTGCTG+CAGCACATACCGCACGTCG ((((((((...((((((((+))))))))...))))))))”, the Tm is reported as 47.3 °C. “CGACGTGCAGAATGTGCTG+CAGCACATGTGGCACGTCG ((((((((...((((((((+))))))))...))))))))” showed a Tm of 51.7 °C. Substance “CGACGTGCTGTATGTGCTG+CAGCACATACAGCACGTCG (((((((((((((((((((+)))))))))))))))))))” has a Tm of 62.1 °C. “CGACGTGCACTATGTGCTG+CAGCACATCCAGCACGTCG ((((((((...((((((((+))))))))...))))))))” showed a Tm of 42.6 °C. Substance “CGACGTGCAAAATGTGCTG+CAGCACATGGCGCACGTCG ((((((((...((((((((+))))))))...))))))))” has a Tm of 54 °C. “CGACGTGCGCTATGTGCTG+CAGCACATTAAGCACGTCG ((((((((...((((((((+))))))))...))))))))” showed a Tm of 52.8 °C. Work on “CGACGTGCACGATGTGCTG+CAGCACATTGGGCACGTCG ((((((((.(.((((((((+)))))))).).))))))))” yielded a Tm of 56.4 °C. Substance “CGACGTGCGCTATGTGCTG+CAGCACATTCTGCACGTCG ((((((((...((((((((+))))))))...))))))))” has a Tm of 48.6 °C. With “CGACGTGCTTCATGTGCTG+CAGCACATAACGCACGTCG ((((((((.(.((((((((+)))))))).).))))))))” the Tm was 49.3 °C. Work on “CGACGTGCATCATGTGCTG+CAGCACATTTGGCACGTCG ((((((((...((((((((+))))))))...))))))))” yielded a Tm of 48.2 °C. For “CGACGTGCATCATGTGCTG+CAGCACATTGCGCACGTCG ((((((((...((((((((+))))))))...))))))))”, the Tm was 46.9 °C. “CGACGTGCGCTATGTGCTG+CAGCACATGTAGCACGTCG ((((((((...((((((((+))))))))...))))))))” showed a Tm of 52.5 °C. Substance “CGACGTGCCGTATGTGCTG+CAGCACATGTAGCACGTCG ((((((((...((((((((+))))))))...))))))))” has a Tm of 49.1 °C. Substance “CGACGTGCGTTATGTGCTG+CAGCACATATCGCACGTCG (((((((((.(((((((((+))))))))).)))))))))” has a Tm of 56.5 °C. In the case of “CGACGTGCGTAATGTGCTG+CAGCACATTGGGCACGTCG ((((((((..(((((((((+)))))))))..))))))))”, the Tm is reported as 55 °C. Substance “CGACGTGCATAATGTGCTG+CAGCACATCTCGCACGTCG ((((((((...((((((((+))))))))...))))))))” has a Tm of 47.6 °C. Work on “CGACGTGCTATATGTGCTG+CAGCACATAGGGCACGTCG ((((((((..(((((((((+)))))))))..))))))))” yielded a Tm of 53.2 °C. Work on “CGACGTGCTCGATGTGCTG+CAGCACATTATGCACGTCG ((((((((...((((((((+))))))))...))))))))” yielded a Tm of 49.6 °C. “CGACGTGCTACATGTGCTG+CAGCACATCCGGCACGTCG ((((((((...((((((((+))))))))...))))))))” gave a Tm of 48.7 °C. Substance “CGACGTGCTTGATGTGCTG+CAGCACATGCTGCACGTCG ((((((((...((((((((+))))))))...))))))))” has a Tm of 48.1 °C. Work on “CGACGTGCAAGATGTGCTG+CAGCACATGCTGCACGTCG (((((((((..((((((((+))))))))..)))))))))” yielded a Tm of 51.1 °C. Substance “CGACGTGCTCGATGTGCTG+CAGCACATGCTGCACGTCG ((((((((...((((((((+))))))))...))))))))” has a Tm of 47 °C. “CGACGTGCGAGATGTGCTG+CAGCACATGCGGCACGTCG ((((((((...((((((((+))))))))...))))))))” gave a Tm of 50.4 °C. In the case of “CGACGTGCGCAATGTGCTG+CAGCACATCGCGCACGTCG ((((((((((.((((((((+)))))))).))))))))))”, the Tm is reported as 60.3 °C. With “CGACGTGCTCTATGTGCTG+CAGCACATTTAGCACGTCG (((((((((..((((((((+))))))))..)))))))))” the Tm was 51 °C. “CGACGTGCGAGATGTGCTG+CAGCACATGGGGCACGTCG ((((((((...((((((((+))))))))...))))))))” showed a Tm of 51.1 °C. With “CGACGTGCATAATGTGCTG+CAGCACATGCAGCACGTCG ((((((((...((((((((+))))))))...))))))))” the Tm was 51.4 °C. Substance “CGACGTGCCCGATGTGCTG+CAGCACATGTCGCACGTCG ((((((((...((((((((+))))))))...))))))))” has a Tm of 48.4 °C. In the case of “CGACGTGCGCCATGTGCTG+CAGCACATACTGCACGTCG ((((((((...((((((((+))))))))...))))))))”, the Tm is reported as 48.2 °C. For “CGACGTGCTACATGTGCTG+CAGCACATAGTGCACGTCG ((((((((...((((((((+))))))))...))))))))”, the Tm was 48.1 °C. Substance “CGACGTGCCTAATGTGCTG+CAGCACATGCCGCACGTCG ((((((((...((((((((+))))))))...))))))))” has a Tm of 48.5 °C. In the case of “CGACGTGCCACATGTGCTG+CAGCACATACAGCACGTCG ((((((((...((((((((+))))))))...))))))))”, the Tm is reported as 48.6 °C. “CGACGTGCTGGATGTGCTG+CAGCACATAATGCACGTCG ((((((((...((((((((+))))))))...))))))))” gave a Tm of 50.7 °C. In the case of “CGACGTGCAGCATGTGCTG+CAGCACATGCGGCACGTCG ((((((((.((((((((((+)))))))))).))))))))”, the Tm is reported as 61.6 °C. Substance “CGACGTGCCCCATGTGCTG+CAGCACATCAGGCACGTCG (((((((((..((((((((+))))))))..)))))))))” has a Tm of 52.5 °C. In the case of “CGACGTGCAGAATGTGCTG+CAGCACATGGCGCACGTCG ((((((((...((((((((+))))))))...))))))))”, the Tm is reported as 55.9 °C. Substance “CGACGTGCTAAATGTGCTG+CAGCACATCGCGCACGTCG ((((((((...((((((((+))))))))...))))))))” has a Tm of 47.5 °C. For “CGACGTGCCATATGTGCTG+CAGCACATGGCGCACGTCG ((((((((...((((((((+))))))))...))))))))”, the Tm was 50.3 °C. Substance “CGACGTGCTACATGTGCTG+CAGCACATTCCGCACGTCG ((((((((...((((((((+))))))))...))))))))” has a Tm of 47.2 °C. “CGACGTGCATTATGTGCTG+CAGCACATGTAGCACGTCG ((((((((...((((((((+))))))))...))))))))” gave a Tm of 49.4 °C. With “CGACGTGCACGATGTGCTG+CAGCACATGCAGCACGTCG ((((((((...((((((((+))))))))...))))))))” the Tm was 45.9 °C. With “CGACGTGCACGATGTGCTG+CAGCACATTCAGCACGTCG ((((((((...((((((((+))))))))...))))))))” the Tm was 45.5 °C. Work on “CGACGTGCGTAATGTGCTG+CAGCACATCTTGCACGTCG ((((((((...((((((((+))))))))...))))))))” yielded a Tm of 49.7 °C. In the case of “CGACGTGCATCATGTGCTG+CAGCACATTCTGCACGTCG (((((((((..((((((((+))))))))..)))))))))”, the Tm is reported as 50.5 °C. In the case of “CGACGTGCCGGATGTGCTG+CAGCACATGTCGCACGTCG ((((((((...((((((((+))))))))...))))))))”, the Tm is reported as 49.4 °C.
